Data taken from patent US20260023068A1, “USE OF A FBXO42 SPECIFIC INHIBITOR IN TREATING NOTCH SIGNALING-DEPENDENT DISEASE” (WESTLAKE UNIVERSITY, priority 2022, published 2026).
Each block holds one molecule with its values, some of them ahead of it.

Legend:
[1] = molecular target: cSFB-tagged RBPJ (recombination signal-binding protein of immunoglobulin kappa J region with C-terminal SFB tag), Q06330; assay: biomolecular interaction kinetics with purified proteins; RBPJ at 225 nM loaded on SA probe, FBXO42 at 19.5-625 nM; conditions: remark: other sources report otherwise
CUL1 = molecular target: T1, CUL1 (UniProt Q13616 1-776); assay: TAP-MS with FBXO42 as the bait in HEK293T cells
T1 construct: also called Cullin-1
Procedure: TAP purification was performed as described previously (W Bian et al., Low-density-lipoprotein-receptor-related protein 1 mediates Notch pathway activation. Dev Cell 56, 2902-2919 e2908 (2021)). Briefly, 1×10⁸ HEK293T cells stably expressing cSFB-RBPJ or FBXO42 were lysed in 5 ml of NETN buffer (with protease inhibitors) at 4° C. for 30 min followed by TurboNuclease treatment. The lysate was then incubated with streptavidin-conjugated beads (Thermo Fisher Scientific, Waltham, MA) for 2 h at 4° C. After washing with NETN buffer, the bound proteins were eluted with NETN buffer containing 2 mg/mL biotin (Sigma, St. Louis, MO) for 2 h at 4° C. The eluates were then incubated with S-protein beads (EMD Millipore, Burlington, […]) for 4 h. The beads were washed three times with NETN buffer and subjected to SDS-PAGE, followed by Coomassie blue staining. The whole band was excised and subjected to in-gel trypsin digestion and MS analysis.
FBXO42 is a substrate-recognition component of the SKP1-CUL1-F-box protein (SCF)-type E3 ligase complex, which has been previously reported to promote p53 ubiquitination and degradation (L. Sun et al., JFK, a Kelch domain-containing F-box protein, links the SCF complex to p53 regulation. Proc Natl Acad Sci USA 106,10195-10200 (2009)). […]

RBPJ = molecular target: T2, RBPJ (Homo sapiens, UniProt Q06330); assay: Biomolecular interaction analysis with purified recombinant RBPJ and FBXO42 proteins; assay type: binding; conditions: in vitro, RBPJ 225 nM on SA probe, FBXO42 19.5 nM-625 nM (FIG. 3I)
T2 construct: SFB (cSFB) (C); made in house; host or cells: 293F cells
From the text: (A) Interaction network of FBXO42. Top 50 interactors identified in TAP-MS was shown. (B) KEGG enrichment analysis of preys acquired in FBXO42 tandem-affinity purification (TAP)-MS. The x-axis represents gene ratio=count/set size. The size of the dots represents the number of genes associated with the GO term and the color of the dots represent the adjusted P-values. (C) Circos plot showing overlapping RBPJ and FBXO42 preys. Purple lines link the genes that shared by RBPJ and FBXO42. Blue lines link different genes enriched in the same ontology term. (D and E) HEK293T cell lysates were incubated with IgG control and antibodies against FBXO42 (D) or RBPJ (E). Five percent lysate was used as the input control. Blots with antibodies recognizing RBPJ, FBXO42 and Actin are shown. (F and G) HEK293T cells were cotransfected with Myc-tagged FBXO42 and cSFB-tagged RBPJ, as indicated. The cell lysates were incubated with S beads (F) or an anti-MYC antibody (G). Five percent lysate was used as the input control. Blots with antibodies recognizing the FLAG and MYC epitope tags and Actin are shown. (H) Coomassie blue staining of cSFB-tagged RBPJ and FLAG-FBXO42 proteins purified from 293F cells. (I) Biomolecular interaction kinetics curve showing the binding affinity between purified RBPJ and FBXO42 proteins. The RBPJ was used at 225 nM for binding to SA probe. […]

T1 sequence (Q13616 whole entry): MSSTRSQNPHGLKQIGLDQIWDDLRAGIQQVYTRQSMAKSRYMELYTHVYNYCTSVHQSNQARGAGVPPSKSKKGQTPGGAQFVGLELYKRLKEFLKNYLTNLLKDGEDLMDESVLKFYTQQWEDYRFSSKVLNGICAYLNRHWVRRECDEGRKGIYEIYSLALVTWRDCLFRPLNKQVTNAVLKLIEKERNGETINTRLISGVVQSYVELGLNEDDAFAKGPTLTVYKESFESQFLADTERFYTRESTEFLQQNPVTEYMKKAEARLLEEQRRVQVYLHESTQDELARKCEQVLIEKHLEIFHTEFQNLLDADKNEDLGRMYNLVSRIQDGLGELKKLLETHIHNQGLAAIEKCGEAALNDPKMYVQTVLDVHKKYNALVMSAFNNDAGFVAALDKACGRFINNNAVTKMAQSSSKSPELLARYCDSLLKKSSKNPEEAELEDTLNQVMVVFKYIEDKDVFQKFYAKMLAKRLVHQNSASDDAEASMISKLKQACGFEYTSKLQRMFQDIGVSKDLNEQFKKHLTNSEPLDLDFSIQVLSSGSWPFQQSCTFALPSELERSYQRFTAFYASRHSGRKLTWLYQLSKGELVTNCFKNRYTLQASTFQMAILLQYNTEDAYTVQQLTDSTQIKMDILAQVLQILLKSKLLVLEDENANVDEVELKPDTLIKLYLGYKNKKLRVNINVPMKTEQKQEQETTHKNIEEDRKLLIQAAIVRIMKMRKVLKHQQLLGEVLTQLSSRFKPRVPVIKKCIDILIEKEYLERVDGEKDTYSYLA
Chain of cSFB-tagged RBPJ (recombination signal-binding protein of immunoglobulin kappa J region with C-terminal SFB tag), Q06330 (Q06330 whole entry): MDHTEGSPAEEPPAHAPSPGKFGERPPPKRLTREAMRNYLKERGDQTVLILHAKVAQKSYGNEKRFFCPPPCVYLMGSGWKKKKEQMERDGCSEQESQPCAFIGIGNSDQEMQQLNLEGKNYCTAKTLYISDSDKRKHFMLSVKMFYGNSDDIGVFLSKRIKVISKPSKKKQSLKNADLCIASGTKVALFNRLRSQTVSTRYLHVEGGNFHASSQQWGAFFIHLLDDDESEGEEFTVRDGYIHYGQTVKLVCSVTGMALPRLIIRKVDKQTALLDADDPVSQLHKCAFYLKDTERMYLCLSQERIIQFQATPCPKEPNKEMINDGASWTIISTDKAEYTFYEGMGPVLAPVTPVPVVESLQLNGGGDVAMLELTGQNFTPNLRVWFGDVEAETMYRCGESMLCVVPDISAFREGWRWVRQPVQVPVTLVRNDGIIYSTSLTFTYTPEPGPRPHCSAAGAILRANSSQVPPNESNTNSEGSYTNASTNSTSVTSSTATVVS
T2 sequence (Q06330 whole entry): as above

Kd [1]: 47 nM
binding result (CUL1): binds
B1: cSFB-FBXO42 (FBXO42 with C-terminal SFB tag) (other, UniProt Q6P3S6 1-717, looked up)
chain: MASSSDSEDDSFMAVDQEETVLEGTMDQDEEPHPVLEAEETRHNRSMSELPEEVLEYILSFLSPYQEHKTAALVCKQWYRLIKGVAHQCYHGFMKAVQEGNIQWESRTYPYPGTPITQRFSHSACYYDANQSMYVFGGCTQSSCNAAFNDLWRLDLNSKEWIRPLASGSYPSPKAGATLVVYKDLLVLFGGWTRPSPYPLHQPERFFDEIHTYSPSKNWWNCIVTTHGPPPMAGHSSCVIDDKMIVFGGSLGSRQMSNDVWVLDLEQWAWSKPNISGPSPHPRGGQSQIVIDDATILILGGCGGPNALFKDAWLLHMHSGPWAWQPLKVENEEHGAPELWCHPACRVGQCVVVFSQAPSGRAPLSPSLNSRPSPISATPPALVPETREYRSQSPVRSMDEAPCVNGRWGTLRPRAQRQTPSGSREGSLSPARGDGSPILNGGSLSPGTAAVGGSSLDSPVQAISPSTPSAPEGYDLKIGLSLAPRRGSLPDQKDLRLGSIDLNWDLKPASSSNPMDGMDNRTVGGSMRHPPEQTNGVHTPPHVASALAGAVSPGALRRSLEAIKAMSSKGPSASAALSPPLGSSPGSPGSQSLSSGETVPIPRPGPAQGDGHSLPPIARRLGHHPPQSLNVGKPLYQSMNCKPMQMYVLDIKDTKEKGRVKWKVFNSSSVVGPPETSLHTVVQGRGELIIFGGLMDKKQNVKYYPKTNALYFVRAKR
notes: Stably expressed in HEK293T cells as bait for TAP-MS; also called FBXO42 bait; not shown: C-terminal SFB tag

Kd (RBPJ): 47 nM
B2: FBXO42: purified recombinant F-box protein 42, substrate-recognition component of the SCF-type E3 ligase complex (protein)
chain: B1 chain
modifications: left off: small tags and cut ends
notes: purified recombinant F-box protein 42, substrate-recognition component of the SCF-type E3 ligase complex
